Experimental data reported in US20030054515A1 (MYRIAD GENETICS, published 2003).

B1: XE169, amino acids 1239-1439, prey clone fused to the Gal4 activation domain (other, Saccharomyces cerevisiae;human, UniProt P04386 768-881, looked up, not shown: small tags and cut ends)
chain: ANFNQSGNIADSSLSFTFTNSSNGPNLITTQTNSQALSQPIASSNVHDNFMNNEITASKIDDGNNSKPLSPGWTDQTAYNAFGITTGMFNTTTMDDVYNYLFDDEDTPPNPKKEDTKFLCPLCMRSRRPRLETILALLVALQRLPVRLPEGEALQCLTERAISWQGRARQALASEDVTALLGRLAELRQRLQAEPRPEEPPNYPAAPASDPLREGSGKDMPKVQGLLENGDSVTSPEKVAPEEGSGLELLSSLLPQLTGPVLELPEATRAPLEELMMEGDLLEVTLDENHSIWQLLQAGQPPDLERIRTLLE
notes: Prey from a human brain cDNA library in pACT2; also called SMCX
B2: PN12361, amino acids 1-223, prey clone fused to the Gal4 activation domain (other, Saccharomyces cerevisiae, not shown: small tags and cut ends)
chain: ANFNQSGNIADSSLSFTFTNSSNGPNLITTQTNSQALSQPIASSNVHDNFMNNEITASKIDDGNNSKPLSPGWTDQTAYNAFGITTGMFNTTTMDDVYNYLFDDEDTPPNPKKEMDALVEDDICILNHEKAHKRDTVTPVSIYSGDESVASHFALVTAYEDIKKRLKDSEKENSLLKKRIRFLEEKLIARFEEETSSVGREQVNKAYHAYREVCIDRDNLKSKLDKMNKDNSESLKVLNEQLQSKEVELLQLRTEVETQQVMRNLNPPSSNWEVEKLSCDLKIHGLEQELELMRKECSDLKIELQKAKQTDPYQEDNLKSRDLQKLSISSDNMQHAY
notes: range 768-881; Prey from a human brain cDNA library in pACT2; also called novel AZ2-like protein
B3: Beta catenin (B-CAT), amino acids 487-668, prey clone fused to the Gal4 activation domain (other, Saccharomyces cerevisiae;human, UniProt P04386 768-881, looked up, not shown: small tags and cut ends)
chain: ANFNQSGNIADSSLSFTFTNSSNGPNLITTQTNSQALSQPIASSNVHDNFMNNEITASKIDDGNNSKPLSPGWTDQTAYNAFGITTGMFNTTTMDDVYNYLFDDEDTPPNPKKELHYGLPVVVKLLHPPSHWPLIKATVGLIRNLALCPANHAPLREQGAIPRLVQLLVRAHQDTQRRTSMGGTQQQFVEGVRMEEIVEGCTGALHILARDVHNRIVIRGLNTIPLFVQLLYSPIENIQRVAAGVLCELAQDKEAAEAIEAEGATAPLTELLHSRNEGVATYAAAVLFRMSEDKPQ
notes: Prey from a human brain cDNA library in pACT2; residues counted on GenBank Z19054
B4: KIAA0619, amino acids 589-828, prey clone fused to the Gal4 activation domain (other, Saccharomyces cerevisiae;human, UniProt P04386 768-881, looked up, not shown: small tags and cut ends)
chain: ANFNQSGNIADSSLSFTFTNSSNGPNLITTQTNSQALSQPIASSNVHDNFMNNEITASKIDDGNNSKPLSPGWTDQTAYNAFGITTGMFNTTTMDDVYNYLFDDEDTPPNPKKESKQIQQLESNNRDLQDKNCLLETAKLKLEKEFINLQSALESERRDRTHGSEIINDLQGRICGLEEDLKNGKILLAKVELEKRQLQERFTDLEKEKSNMEIDMTYQLKVIQQSLEQEEAEHKATKARLADKNKIYESIEEAKSEAMKEMEKKLLEERTLKQKVENLLLEAEKRCSLLDCDLKQSQQKINELLKQKDVLNEDVRNLTLKIEQETQKRCLTQNDLKMQTQQVNTLKMSEKQLK
notes: Prey from a human brain cDNA library in pACT2; residues counted on GenBank AB014519; also called ROCK2

What was measured:
[1] = molecular target: T1, Nuclear receptor coactivator 2 (NCOA2), amino acids 366-624, bait fused to the Gal4 DNA binding domain (Saccharomyces cerevisiae, UniProt P04386 1-147; Q15596 366-624); experiment: yeast two-hybrid; bait NCOA2 aa 366-624 (Gal4 DBD), prey from human brain library (Gal4 AD)
T1 construct: Bait expressed in yeast from vector pGBTQ as a C-terminal fusion to Gal4 DBD; Residues are counted on GenBank X97674; also called GRIP 1
Excerpt: (§1) In these yeast cells, the bait is produced as a C-terminal fusion protein with the DNA binding domain of the transcription factor Gal4 (amino acids 1 to 147). A total human brain (person) cDNA library cloned into the yeast expression vector pACT2 was purchased from Clontech (human brain […] cDNA, cat. #HL4004AH), transformed into the yeast strain J692 (genotype of this strain: Mat a, ade2, his3, leu2, trp1, URA3::GAL1-lacZ LYS2::GAL1-HIS3 gal4del gal80del cyhR2), and selected for the ability to drive leucine synthesis. In these yeast cells, each cDNA is expressed as a fusion protein with the transcription activation domain of the transcription factor Gal4 (amino acids 768 to 881) and a 9 amino acid hemagglutinin epitope tag. J693 cells (Mat α type) expressing the bait were then mated with J692 cells (Mat a type) expressing proteins from the brain library. The resulting diploid yeast cells expressing proteins interacting with the bait protein were selected for the ability to synthesize tryptophan, leucine, histidine, and β-galactosidase. DNA was prepared from each clone, transformed by electroporation into E. coli strain KC8 (Clontech KC8 electrocompetent cells, cat. #C2023-1), and the cells were selected on ampicillin-containing plates in the absence of either tryptophane (selection for the bait plasmid) or leucine (selection for the brain library plasmid). […]

[2] = molecular target: T1, Nuclear receptor coactivator 2 (NCOA2), …; experiment: yeast two-hybrid screen with NCOA2 as bait
Excerpt: as §1

[3] = molecular target: T1, Nuclear receptor coactivator 2 (NCOA2), …; experiment: yeast two-hybrid; Gal4 DBD bait, prey from human brain library (Gal4 AD)
Excerpt: as §1, with “A” for “In these yeast cells, the bait is produced as a C-terminal fusion protein with the DNA binding domain of the transcription factor Gal4 (amino acids 1 to 147). A”, “plasmid). DNA for both plasmids was prepared and sequenced by di-deoxynucleotide chain termination method.” for “plasmid).”

Binder | binding result [3] | other results
B1 |  | binding result [1]: binds
B2 |  | binding result [2]: binds
B3 | binds | 
B4 | binds | 
